Reference: paper PMC2710002, “KCNE1 and KCNE3 β-Subunits Regulate Membrane Surface Expression of Kv12.2 K^+ Channels In Vitro and Form a Tripartite Complex In Vivo” (PLoS ONE, 2009)

Target: the molecule itself
Test: native gel or EMSA; blue native PAGE (4-16% NativePAGE Novex Bis-Tris, G-250, pH 7, 4°C) of proteins immunoprecipitated from digitonin lysate of mouse brain; blot with anti-Kv12.2; size of the Kv12.2 complex

B1: Kv12.2 channel (natural protein, mouse (endogenous in mouse brain), UniProt Q9WVJ0 1-1095, looked up)
chain: MPAMRGLLAPQNTFLDTIATRFDGTHSNFVLGNAQVAGLFPVVYCSDGFCDLTGFSRAEVMQRGCACSFLYGPDTSELVRQQIRKALDEHKEFKAELILYRKSGLPFWCLLDVIPIKNEKGEVALFLVSHKDISETKNRGGPDNWKERGGGRRRYGRAGSKGFNANRRRSRAVLYHLSGHLQKQPKGKHKLNKGVFGEKPNLPEYKVAAIRKSPFILLHCGALRATWDGFILLATLYVAVTVPYSVCVSTAREPSAARGPPSVCDLAVEVLFILDIVLNFRTTFVSKSGQVVFAPKSICLHYVTTWFLLDVIAALPFDLLHAFKVNVYVGAHLLKTVRLLRLLRLLPRLDRYSQYSAVVLTLLMAVFALLAHWVACVWFYIGQQEIESSESELPEIGWLQELARRLETPYYLVSRSPDGGNSSGQSENCSSSSSSSGSGGGRGSEANGTGLELLGGPSLRSAYITSLYFALSSLTSVGFGNVSANTDTEKIFSICTMLIGALMHAVVFGNVTAIIQRMYARRFLYHSRTRDLRDYIRIHRIPKPLKQRMLEYFQATWAVNNGIDTTELLQSLPDELRADIAMHLHKEVLQLPLFEAASRGCLRALSLALRPAFCTPGEYLIHQGDALQALYFVCSGSMEVLKGGTVLAILGKGDLIGCELPQREQVVKANADVKGLTYCVLQCLQLAGLHESLALYPEFAPRFSRGLRGELSYNLGAGGVSAEVDTSSLSGDNTLMSTLEEKETDGEQGHTVSPAPADEPSSPLLSPGCTSSSSAAKLLSPRRTAPRPRLGGRGRPSRAGVLKPEAGPSAHPRSLDGLQLPPMPWNVPPDLSPRVVDGIEDGCSSDQPKFSFRVGQSGPECSSSPSPGTESGLLTVPLGPSEARNTDTLDKLRQAVMELSEQVLQMREGLQSLRQAVQLILVPQGEGQCPRGSGEEPCPATASGLLQPLRVDTGASSYCLQPPAGSVLSGTWPHPRPGQPPPLMAPWPWGPPASQSSPWPRATALWTSTSDSEPPGSGDLCSEPSTPASPPPSEEGARTGTPAPVSQAEATSTGEPPPGPGGRALPWDPHSLEMVLIGCHGPGTVQWTQEEGTGV
notes: Kv12.2 (ELK2, KCNH3) voltage-gated potassium channel alpha subunit, mouse, endogenous in brain; about 120 kDa monomer on a denaturing gel, about 500 kDa complex on a native gel; also called ELK2; KCNH3; source: endogenous, mouse brain membrane lysate (0.5% Igepal) or whole mouse brain lysate (1% digitonin)
Question: B1 was tested. Which “stoichiometry N” value did it give?
Answer: The value was 4.
